Experimental data from patent US20150368652A1.

Molecular target: Kcna2 protein (Kv1.2), endogenous in rat dorsal root ganglion neurons (rat) (UniProt P63142)
Assay: cell-based or functional assay

UniProt P63142, sequence (P63142 whole entry): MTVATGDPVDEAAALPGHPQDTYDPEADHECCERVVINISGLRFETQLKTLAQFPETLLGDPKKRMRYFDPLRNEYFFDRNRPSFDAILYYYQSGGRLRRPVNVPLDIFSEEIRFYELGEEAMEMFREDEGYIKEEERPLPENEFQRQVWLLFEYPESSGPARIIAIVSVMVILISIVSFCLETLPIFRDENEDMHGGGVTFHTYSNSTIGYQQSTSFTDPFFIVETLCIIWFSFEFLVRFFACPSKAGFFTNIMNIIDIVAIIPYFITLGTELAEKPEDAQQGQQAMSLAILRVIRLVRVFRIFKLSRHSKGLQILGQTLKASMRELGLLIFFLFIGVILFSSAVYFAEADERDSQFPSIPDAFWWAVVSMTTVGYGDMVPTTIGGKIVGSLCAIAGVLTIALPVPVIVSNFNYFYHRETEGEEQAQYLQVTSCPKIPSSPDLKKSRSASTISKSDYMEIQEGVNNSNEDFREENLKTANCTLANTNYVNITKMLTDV

maurotoxin (from UniProt P80719 1-34) (peptide)
total voltage-gated potassium current retained at +50 mV after 100 nM MTX, large DRG neurons, Kcna2 antisense-treated group (Kcna2 downregulated): 92.3 % of current | total voltage-gated potassium current retained at +50 mV after 100 nM MTX, large DRG neurons, control group (whole-cell voltage clamp): 81.7 % of current | total voltage-gated potassium current retained at +50 mV after 100 nM MTX, medium DRG neurons, Kcna2 antisense-treated group (Kcna2 downregulated): 94.9 % of current | total voltage-gated potassium current retained at +50 mV after 100 nM MTX, medium DRG neurons, control group (whole-cell voltage clamp): 85.1 % of current
